PMC7888922

Biological target: sACE2_(2).v2.4-IgG1 (human) (UniProt Q9BYF1)
Test: BLI

Substance | Kd | koff | kon
SARS-CoV-2 RBD-N501Y (8his-tagged) (from UniProt P0DTC2 333-529) (domain or fragment) | < 0.1 nM | 0.00011 s⁻¹ | 360000 M⁻¹ s⁻¹
SARS-CoV-2 RBD-Y449K (8his-tagged) (from UniProt P0DTC2 333-529) (domain or fragment) | 0.9 nM | 0.004 s⁻¹ | 4.3e+06 M⁻¹ s⁻¹
